Among the data in patent US20030037355 are Kd, activity (fold repression) and activity (fold activation) values, retold here.

Data set [1] relates to 2C7 six-finger zinc finger protein (artificial). Conditions: CITED earlier work; cited from earlier work.
Data set [2] relates to SID-2C7 six-finger repressor (artificial). The data set is described as follows: cell_activity. The following applies: tobacco protoplasts; almost 2 fold in maize.
In data set [3] the target is C7-VP64 three-finger activator (artificial) (UniProt P08046). Nature of the data set: cell_activity. The following applies: tobacco protoplasts, Reporter II pc7rbTATA; Reporter I 10 fold.
Data set [4] concerns e2c six-finger zinc finger protein (artificial). The following applies: CITED Beerli et al. 1998; cited from earlier work.

Consider “GCGTGGGCGGCGTGGGCG (double strand) [2C7 binding site (six tandem repeats in reporters)]”, for which the Kd (as a rule, the equilibrium constant for the complex coming apart) in data set [1] is 0.46 nM. Further, the activity (fold repression) in data set [2] came out at 5. This substance also had an activity (fold activation) in data set [3] of 100.
On to e2c target site, for which the Kd in data set [4] was 0.5 nM.
